Reference: patent US20210388087A1
Changes are numbered by the printed parent chain. Names and notes keep the numbering of the source.

B1: H183/L072 VL A25R (antibody, name in Kabat numbering, V domains shown)
VH: QVQLVESGGGLVQPGRSLRLSCAASGFTFSNAWMHWVRQAPGKGLEWVAQIKDKGNAYAAYYAPSVKGRFTISRDDSKNSIYLQMNSLKTEDTAVYYCHYVHYASASTVLPAFGVDAWGQGTTVTVSS
VL: DIVMTQSPLSLPVTPGEPASISCQRSQELVHMNRNTYLHWYQQKPGQAPRLLIYKVSNRFPGVPDRFSGSGSGTDFTLKISRVEAEDVGVYYCAQGTSVPFTFGQGTKLEIK
B2: CE115HA000/GLS3000 N28D (antibody, IgG1, name in Kabat numbering, V domains shown)
VH: QVQLVESGGGVVQPGRSLRLSCAASGFTFSNAWMHWVRQAPGKGLEWVAQIKAKSNNYATYYAESVKGRFTISRDDSKNSLYLQMNSLKTEDTAVYYCRYVHYGAYYGVDAWGQGTTVTVSS
VL: B1 VL with Q24R, R25S, E28S, M32S, N33D, P61S, A94G, S98Q, F101Y
B3: H183/L072 VL Y32R (antibody, name in Kabat numbering, V domains shown)
VH: B1 VH
VL: B1 VL with R25A, Y37R
B4: H183/L072 VL R54N (antibody, name in Kabat numbering, V domains shown)
VH: B1 VH
VL: B1 VL with R25A, R59N
B5: H183/L072 VL A25Y (antibody, name in Kabat numbering, V domains shown)
VH: B1 VH
VL: B1 VL with R25Y
B6: H183/L072 with G91Y (Kabat) in VL dBBDu072L (antibody, name in Kabat numbering, V domains shown)
VH: B1 VH
VL: B1 VL with R25A, G96Y
B7: H183/L072 VL H34Y (antibody, name in Kabat numbering, V domains shown)
VH: B1 VH
VL: B1 VL with R25A, H39Y
B8: H183/L072 VL L27bR (antibody, name in Kabat numbering, V domains shown)
VH: B1 VH
VL: B1 VL with R25A, L29R
B9: Ctrl/Ctrl × CD3 trispecific antibody (antibody, part only; not given: control Fvs, constant regions, Fc, V domains shown, not shown: another chain or arm of the molecule; a dimerising Fc or GST; large carriers)
VH: QVQLVESGGGLVQPGRSLRLSCAASGFTFSNAWMHWVRQAPGKGLEWVAQIKDRANSYNTYYAESVKGRFTISRDDSKNSIYLQMNSLKTEDTAVYYCRYVHYTTYAGSSFSYGVDAWGQGTTVTVSS
VL: B1 VL with Q24R, R25S, E28P, M32S, P61S, A94G, S98Q, F101Y
B10: H183/L072 with T92Y (Kabat) in VL dBBDu072L (antibody, name in Kabat numbering, V domains shown)
VH: B1 VH
VL: B1 VL with R25A, T97Y
B11: H183/L072 with V51Y (Kabat) in VL dBBDu072L (antibody, name in Kabat numbering, V domains shown)
VH: B1 VH
VL: B1 VL with R25A, V56Y
B12: GPC3/Ctrl × CD3 trispecific antibody (antibody, part only; not given: control Fv, constant regions, Fc, V domains shown, not shown: another chain or arm of the molecule; a dimerising Fc or GST; large carriers; small tags and cut ends)
VH 1: B9 VH
VL 1: B1 VL with Q24R, R25S, E28P, M32S, P61S, A94G, S98Q, F101Y
VH 2: QVQLVQSGAEVKKPGASVTVSCKASGYTFTDYEMHWIRQPPGEGLEWIGAIDGPTPDTAYSEKFKGRVTLTADKSTSTAYMELSSLTSEDTAVYYCTRFYSYTYWGQGTLVTVSS
VL 2: B1 VL with Q24R, R25S, E28P, M32S, P61S, A94G, S98Q, F101Y
B13: H183/L072 VL L27bY (antibody, name in Kabat numbering, V domains shown)
VH: B1 VH
VL: B1 VL with R25A, L29Y
B14: CE115HA000/GLS3000 G91S (antibody, IgG1, name in Kabat numbering, V domains shown)
VH: B2 VH
VL: B1 VL with Q24R, R25S, E28S, M32S, P61S, A94G, G96S, S98Q, F101Y
B15: CE115HA000/GLS3000 H27dD (antibody, IgG1, name in Kabat numbering, V domains shown)
VH: B2 VH
VL: B1 VL with Q24R, R25S, E28S, H31D, M32S, P61S, A94G, S98Q, F101Y
B16: H183/L072 VL H34W (antibody, name in Kabat numbering, V domains shown)
VH: B1 VH
VL: B1 VL with R25A, H39W
B17: H183/L072 VL H34F (antibody, name in Kabat numbering, V domains shown)
VH: B1 VH
VL: B1 VL with R25A, H39F
B18: H183/L072 VL A25W (antibody, name in Kabat numbering, V domains shown)
VH: B1 VH
VL: B1 VL with R25W
B19: H1647L0581 (antibody, V domains shown)
VH: B1 VH with T28K, A32T, M34F, K54Y, G55Y, A57D, V109L, F113E
VL: B1 VL with R25P, L29V, V99H
B20: H183/L072 VL A25F (antibody, name in Kabat numbering, V domains shown)
VH: B1 VH
VL: B1 VL with R25F
B21: H183/L072 VL H34A (antibody, name in Kabat numbering, V domains shown)
VH: B1 VH
VL: B1 VL with R25A, H39A
B22: H183/L072 VL F55A (antibody, name in Kabat numbering, V domains shown)
VH: B1 VH
VL: B1 VL with R25A, F60A
B23: H183/L072 with K50Y (Kabat) in VL dBBDu072L (antibody, name in Kabat numbering, V domains shown)
VH: B1 VH
VL: B1 VL with R25A, K55Y
B24: CE115HA000/GLS3000 H34R (antibody, IgG1, name in Kabat numbering, V domains shown)
VH: B2 VH
VL: B1 VL with Q24R, R25S, E28S, M32S, H39R, P61S, A94G, S98Q, F101Y
B25: H183/L072 VL L33R (antibody, name in Kabat numbering, V domains shown)
VH: B1 VH
VL: B1 VL with R25A, L38R
B26: H183/L072 with Q90Y (Kabat) in VL dBBDu072L (antibody, name in Kabat numbering, V domains shown)
VH: B1 VH
VL: B1 VL with R25A, Q95Y
B27: H183/L072 with P95Y (Kabat) in VL dBBDu072L (antibody, name in Kabat numbering, V domains shown)
VH: B1 VH
VL: B1 VL with R25A, P100Y
B28: H183/L072 VL H34R (antibody, name in Kabat numbering, V domains shown)
VH: B1 VH
VL: B1 VL with R25A, H39R

Legend:
Human CD137 ECD (human) = assay: Biacore SPR, vs parent H183/L072
[1] = biological target: CD3 epsilon homodimer protein (UniProt P07766); assay: SPR, antibody over immobilised CD3e homodimer
[2] = biological target: Human CD3eg linker (human); assay: SPR; fold vs parent H183/L072
[3] = biological target: Human CD3eg linker (human); assay: affinity relative to template H183/L072, single-mutation scan
[4] = biological target: Human CD3eg linker (human); assay: SPR (Biacore T200), 37 degrees C, antibody captured by anti-human Fc on CM4 chip, recombinant human CD3 as analyte, 1:1 model
[5] = biological target: T1, Human CD3eg linker (human); assay: SPR Biacore T200, 25 C, Ab captured on anti-human Fc, antigen as analyte; settings: remark: other sources report otherwise
T1 chain: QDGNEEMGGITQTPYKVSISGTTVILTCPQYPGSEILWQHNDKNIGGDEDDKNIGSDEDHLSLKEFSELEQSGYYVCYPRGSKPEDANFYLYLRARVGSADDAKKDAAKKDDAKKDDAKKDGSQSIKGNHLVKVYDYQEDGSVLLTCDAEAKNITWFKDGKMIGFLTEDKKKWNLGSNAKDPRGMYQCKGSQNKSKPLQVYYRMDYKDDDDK

Chain of CD3 epsilon homodimer protein (P07766 23-126): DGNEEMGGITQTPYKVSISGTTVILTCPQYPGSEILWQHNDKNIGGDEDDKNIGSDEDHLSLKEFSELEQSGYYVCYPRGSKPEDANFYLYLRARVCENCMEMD
Chain of Human CD137 ECD (human) (chain, as listed by the source limits assumed): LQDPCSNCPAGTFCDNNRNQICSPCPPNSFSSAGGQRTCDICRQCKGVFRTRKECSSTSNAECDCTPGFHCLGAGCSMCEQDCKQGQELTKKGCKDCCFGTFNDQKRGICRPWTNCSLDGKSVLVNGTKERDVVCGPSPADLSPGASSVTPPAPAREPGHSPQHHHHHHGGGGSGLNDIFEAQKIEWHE

Binder | fold change of affinity (Human CD137 ECD (human)) [fold] | fold change of affinity [2] [fold] | also measured
B1 | 0 | – | –
B2 | – | – | KD ratio to GLS3000 [1]: 4460
B3 | 0 | 0 | –
B4 | 0.06 | – | –
B5 | 0 | 0 | –
B6 | – | – | fold change of affinity for CD3 [3]: 0 fold
B7 | 0 | 0 | –
B8 | 0 | 0 | –
B9 | – | – | Kd [4]: 17.5 nM; koff [4]: 0.00147 s⁻¹; kon [4]: 83700 M⁻¹ s⁻¹
B10 | – | – | fold change of affinity for CD3 [3]: 0 fold
B11 | – | – | fold change of affinity for CD3 [3]: 0 fold
B12 | – | – | Kd [4]: 17.8 nM; koff [4]: 0.00151 s⁻¹; kon [4]: 85000 M⁻¹ s⁻¹
B13 | 0 | 0 | –
B14 | – | – | KD ratio to GLS3000 [1]: 72100
B15 | – | – | KD ratio to GLS3000 [1]: 13600
B16 | 0 | 0 | –
B17 | 0 | 0 | –
B18 | 0 | 0 | –
B19 | – | – | Kd [5]: 2280 nM; koff [5]: 0.101 s⁻¹; kon [5]: 44300 M⁻¹ s⁻¹
B20 | 0 | 0 | –
B21 | 0 | – | –
B22 | 0 | – | –
B23 | – | – | fold change of affinity for CD3 [3]: 0 fold
B24 | – | – | KD ratio to GLS3000 [1]: 85800
B25 | 0 | 0 | –
B26 | – | – | fold change of affinity for CD3 [3]: 0 fold
B27 | – | – | fold change of affinity for CD3 [3]: 0 fold
B28 | 0 | 0 | –
